The results in this text go back to US20130183334A1.

Assay in all cases: cell-based or functional assay
Assay [1] has as its target HIV-1 NL4-3 Gag with HIV-1/SIVmac239 p6 chimera 17-23(b) (HIV-1 (NL4-3); SIVmac239).
The target of assay [2] is HIV-1 NL4-3 Gag with HIV-1/SIVmac239 p6 chimera 17-24 (HIV-1 (NL4-3); SIVmac239).
The target of assay [3] is HIV-1 NL4-3 Gag with HIV-1/SIVmac239 p6 chimera 17-25 (HIV-1 (NL4-3); SIVmac239).
In assay [4] the target is HIV-1 NL4-3 Gag with HIV-1/SIVmac239 p6 chimera 17-26 (HIV-1 (NL4-3); SIVmac239).
Assay [5] has as its target HIV-1 NL4-3 Gag with HIV-1/SIVmac239 p6 chimera 17-27 (HIV-1 (NL4-3); SIVmac239).
Assay [6] addresses HIV-1 NL4-3 Gag with HIV-1/SIVmac239 p6 chimera 17-28 (HIV-1 (NL4-3); SIVmac239).
For assay [7], the target named is HIV-1 NL4-3 Gag with HIV-1/SIVmac239 p6 chimera 17-38 (HIV-1 (NL4-3); SIVmac239).
Assay [8] addresses HIV-1 NL4-3 Gag with HIV-1/SIVmac239 p6 chimera 17-48 (HIV-1 (NL4-3); SIVmac239).
The target of assay [9] is HIV-1 NL4-3 Gag with p6 point mutation F15A (HIV-1 (NL4-3)) (UniProt P12493).
For assay [10], the target named is HIV-1 NL4-3 Gag with p6 point mutation F17A (HIV-1 (NL4-3)) (UniProt P12493).

“HIV-1 Vpr, myc-tagged (expression vector pcVpr.myc)”: the Vpr packaging into virions (immunoblot of pelleted virions) (fold of wild-type) in assay [1], in [2], in [3], in assay [4], in assay [5] and in [7] was 0.33 each time. For the same substance, in assay [8], the Vpr packaging into virions (immunoblot of pelleted virions) (fold of wild-type) turned out to be 0.33. This substance also returned a Vpr packaging into virions (immunoblot of pelleted virions) (% of wild-type) in [6] of 70. Also, the Vpr packaging into virions (immunoblot of pelleted virions) (% decrease against wild-type) in assay [9] and in assay [10] was 80 throughout.
